Laboratory results reported in article PMC5996960 (Molecular Biology of the Cell, 2018).

Biological target: T1, His6-tagged yeast cyclin C (S. cerevisiae, UniProt P47821 1-323)
T1 sequence (looked up): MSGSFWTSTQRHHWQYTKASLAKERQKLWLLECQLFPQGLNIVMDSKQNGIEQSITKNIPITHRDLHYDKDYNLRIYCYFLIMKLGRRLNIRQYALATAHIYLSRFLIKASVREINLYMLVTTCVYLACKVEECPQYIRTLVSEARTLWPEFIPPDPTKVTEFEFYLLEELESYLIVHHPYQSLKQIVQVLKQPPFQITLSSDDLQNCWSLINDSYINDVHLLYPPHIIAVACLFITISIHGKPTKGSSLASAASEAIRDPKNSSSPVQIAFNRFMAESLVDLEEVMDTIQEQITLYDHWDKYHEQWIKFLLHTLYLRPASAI
Experiment: pull-down

binding result: binds
B1: GST-Med13^742-844 (domain or fragment, S. cerevisiae, UniProt P38931 742-844, looked up)
chain: DIPQTESPLKTVDSSIQPIESNIKMTLEDNNVTSNPSEFTPNMVNSEISNLPKDKSGIPEFTPADPNLSFESSSSLPFLLRHMPLASIPDIFITPTPVVTISE
